Data on three molecules can be found in paper PMC8626469, “Helicobacter pylori FabX contains a [4Fe-4S] cluster essential for unsaturated fatty acid synthesis” (Nature Communications, 2021).

Substrate in data set [1]: CCCCCCCCCC(=O)SCCNC(=O)CCNC(=O)[C@H](O)C(C)(C)COP(=O)(O)OP(=O)(O)OC[C@H]1O[C@@H](n2cnc3c(N)ncnc32)[C@H](O)[C@@H]1OP(=O)(O)O
Briefly: purified protein. Format: biochemical, Helicobacter pylori. The note with it: pH 7.2, 50 mM sodium phosphate, 50 mM NaCl, 25-37 °C, 1.25 uM FabX, 5 uM E. coli FabI, 125 uM NADH, dehydrogenation of substrate analogue of decanoyl-ACP, 30-250 uM.

In data set [2] the target is Helicobacter pylori FabX R164A (H. pylori).
Data set [3] concerns the target Helicobacter pylori FabX (H. pylori). Briefly: SEC-MALS; 10 mg/ml FabX, holo-ACP or FabX-holo-ACP complex on a WTC-030S5 column; 20 mM HEPES pH 8.0, 50 mM NaCl, 10 mM TCEP. (In gel filtration, larger molecules generally elute earlier.)

B1: FabX (Helicobacter pylori) (protein)
chain: MVSTLKPLKIGKHTIKFPIFQGGMGVGISWDELAGNVAKEGALGVISAVGTGYYKNMRFVERIVAKKPFEALNFYSKKALNEIFANARKICGNNPLGANILYAINDYGRVLRDSCEAGANIIITGAGLPTNMPEFAKDFSDVALIPIISSAKALKILCKRWSDRYKRIPDAFIVEGPLSGGHQGFKYEDCFKEEFRLENLVPKVVEASKEWGNIPIIAAGGIWDRKDIDTMLSLGASGVQMATRFLGTKECDAKVYADLLPTLKKEDILLIKSPVGYPARAINTGVIKRIEEGNAPKIACVSNCVAPCNRGEEAKKVGYCIADGLGRSYLGNREEGLYFTGANGYRVDKIISVHELIKELTEG
notes: full length, 363 residues; expressed in E. coli BL21(DE3) Rosetta; monomer in the asymmetric unit; holds FMN and a [4Fe-4S] cluster
Consider B1, for which, in data set [1], the Michaelis-Menten constant (Km) worked out at 125.40 µM and the kcat turned out to be 0.0186 s⁻¹.

B2: Helicobacter pylori decanoyl-acyl carrier protein (natural protein)
chain: MALFEDIQAVIAEQLNVDAVQVTPEAEFVKDLGADSLDVVELIMALEEKFGVEIPDEQAEKIINVGDVVKYIEDNKLA
Turning to B2, the in vitro dehydrogenation activity with decanoyl-ACP (FabX-FabI coupled assay), fold reduction against wild type FabX in data set [2] is 80 fold.

B3: Helicobacter pylori holo-acyl carrier protein (natural protein)
chain: MALFEDIQAVIAEQLNVDAVQVTPEAEFVKDLGADSLDVVELIMALEEKFGVEIPDEQAEKIINVGDVVKYIEDNKLA
modifications: phosphopantetheine group (PPant) on Ser36
In data set [3], B3 gave a stoichiometry N of 1.

As usually defined, the Km is the substrate concentration at which the rate is half of its maximum. For orientation: kcat means the maximal rate divided by the concentration of active sites. As a reminder, the stoichiometry N is the number of molecules, sites or subunits per partner or assembly.
